Earlier results, collected in publication PMC4309608.

Assays:
[1] = target: E-cadherin (Homo sapiens) (UniProt P12830)
Met (Homo sapiens) = Met (Homo sapiens) (UniProt P08581)
[2] = target: TgRON2 (Toxoplasma gondii) (UniProt B6KV60)
UniProt B6KV60, sequence (B6KV60 25-1277): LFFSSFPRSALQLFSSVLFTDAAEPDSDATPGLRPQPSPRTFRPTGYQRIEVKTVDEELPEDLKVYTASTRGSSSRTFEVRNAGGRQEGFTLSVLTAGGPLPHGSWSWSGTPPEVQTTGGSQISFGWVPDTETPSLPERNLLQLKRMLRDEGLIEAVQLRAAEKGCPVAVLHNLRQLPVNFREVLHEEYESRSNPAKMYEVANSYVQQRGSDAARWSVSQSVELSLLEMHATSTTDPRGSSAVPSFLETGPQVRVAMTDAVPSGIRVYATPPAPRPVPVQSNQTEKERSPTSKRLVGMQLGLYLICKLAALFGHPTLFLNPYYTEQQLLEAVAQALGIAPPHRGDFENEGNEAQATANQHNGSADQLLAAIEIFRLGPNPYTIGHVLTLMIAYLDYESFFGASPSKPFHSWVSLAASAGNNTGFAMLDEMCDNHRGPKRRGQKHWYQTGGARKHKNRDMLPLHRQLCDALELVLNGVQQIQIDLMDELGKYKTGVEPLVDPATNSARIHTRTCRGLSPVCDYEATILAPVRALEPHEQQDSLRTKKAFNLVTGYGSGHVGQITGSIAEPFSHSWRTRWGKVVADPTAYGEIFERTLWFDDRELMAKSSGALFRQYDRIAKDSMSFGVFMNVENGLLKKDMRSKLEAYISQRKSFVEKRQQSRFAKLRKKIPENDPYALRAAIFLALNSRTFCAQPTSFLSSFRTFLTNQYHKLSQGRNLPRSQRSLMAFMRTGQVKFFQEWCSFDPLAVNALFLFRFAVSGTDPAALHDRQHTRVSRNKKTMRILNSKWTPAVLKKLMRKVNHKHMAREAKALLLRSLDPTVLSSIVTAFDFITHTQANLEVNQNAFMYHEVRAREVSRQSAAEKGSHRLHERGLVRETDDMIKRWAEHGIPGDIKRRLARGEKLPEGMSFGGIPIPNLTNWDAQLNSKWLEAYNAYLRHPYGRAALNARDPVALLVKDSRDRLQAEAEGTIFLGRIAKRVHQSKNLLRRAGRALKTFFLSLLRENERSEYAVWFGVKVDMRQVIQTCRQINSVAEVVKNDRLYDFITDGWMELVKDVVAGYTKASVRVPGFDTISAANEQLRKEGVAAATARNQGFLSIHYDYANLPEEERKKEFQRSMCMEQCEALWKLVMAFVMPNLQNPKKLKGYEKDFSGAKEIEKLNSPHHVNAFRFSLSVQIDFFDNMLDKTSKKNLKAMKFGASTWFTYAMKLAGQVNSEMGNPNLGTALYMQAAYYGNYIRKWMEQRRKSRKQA

UniProt P08581, sequence (P08581 25-932): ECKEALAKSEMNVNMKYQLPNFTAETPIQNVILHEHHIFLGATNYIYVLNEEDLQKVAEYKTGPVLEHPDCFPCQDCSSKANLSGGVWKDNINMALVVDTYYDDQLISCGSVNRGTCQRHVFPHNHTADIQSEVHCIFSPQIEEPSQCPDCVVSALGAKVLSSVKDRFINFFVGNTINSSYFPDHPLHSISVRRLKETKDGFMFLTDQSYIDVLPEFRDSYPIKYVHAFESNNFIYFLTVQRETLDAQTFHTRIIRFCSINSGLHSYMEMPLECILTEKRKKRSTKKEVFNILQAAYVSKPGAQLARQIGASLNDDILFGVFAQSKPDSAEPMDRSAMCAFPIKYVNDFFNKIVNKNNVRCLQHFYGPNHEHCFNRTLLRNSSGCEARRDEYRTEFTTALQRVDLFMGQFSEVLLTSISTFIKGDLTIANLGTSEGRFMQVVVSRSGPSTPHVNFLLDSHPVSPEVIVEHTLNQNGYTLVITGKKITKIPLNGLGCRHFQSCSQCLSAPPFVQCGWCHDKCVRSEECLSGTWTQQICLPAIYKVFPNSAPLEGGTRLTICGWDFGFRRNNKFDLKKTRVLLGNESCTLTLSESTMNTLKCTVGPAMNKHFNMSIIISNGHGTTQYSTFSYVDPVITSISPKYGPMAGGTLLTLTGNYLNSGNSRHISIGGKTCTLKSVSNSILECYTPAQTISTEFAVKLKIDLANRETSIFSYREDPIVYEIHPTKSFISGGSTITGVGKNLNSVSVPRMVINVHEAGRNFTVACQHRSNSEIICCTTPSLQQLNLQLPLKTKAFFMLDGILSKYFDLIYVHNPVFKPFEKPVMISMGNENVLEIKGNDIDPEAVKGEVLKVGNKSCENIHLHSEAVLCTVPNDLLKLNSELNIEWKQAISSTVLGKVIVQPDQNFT
UniProt P12830, sequence (P12830 155-709): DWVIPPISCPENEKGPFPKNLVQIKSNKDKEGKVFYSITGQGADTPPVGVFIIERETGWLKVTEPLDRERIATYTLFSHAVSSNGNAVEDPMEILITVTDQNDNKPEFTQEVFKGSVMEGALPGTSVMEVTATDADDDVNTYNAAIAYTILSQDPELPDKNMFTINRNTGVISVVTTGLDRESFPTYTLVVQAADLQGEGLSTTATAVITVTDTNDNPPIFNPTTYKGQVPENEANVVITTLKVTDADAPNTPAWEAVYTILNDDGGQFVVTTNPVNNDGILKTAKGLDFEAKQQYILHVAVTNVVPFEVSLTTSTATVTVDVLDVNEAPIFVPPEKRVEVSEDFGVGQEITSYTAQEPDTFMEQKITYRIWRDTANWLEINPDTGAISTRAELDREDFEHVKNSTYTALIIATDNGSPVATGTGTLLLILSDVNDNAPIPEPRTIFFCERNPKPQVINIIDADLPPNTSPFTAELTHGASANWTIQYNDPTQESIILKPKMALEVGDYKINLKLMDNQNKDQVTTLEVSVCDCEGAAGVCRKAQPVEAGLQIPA

In the case of InlA (from UniProt P0DJM0), the Kd [1] is given as 8000 nM.

In the case of InlB (from UniProt P0DQD3), the Kd (Met (Homo sapiens)) is listed as 25 nM.

For TgAMA1 (from UniProt B6KAM0), the Kd [2] is listed as 15 nM.
